The values that follow come from patent US20260117203A1, “MUTANT KETOREDUCTASE WITH INCREASED KETOREDUCTASE ACTIVITY AS WELL AS METHODS AND USES INVOLVING THE SAME” (Hoffmann-La Roche Inc., priority 2023, published 2026).

Usually Km stands for the substrate concentration at which the rate is half of its maximum. By kcat is commonly meant the number of substrate molecules converted per active site and unit of time at saturation. One may read the kcat/Km as the second-order rate constant that governs catalysis at low substrate concentration.

Holding throughout (type): biochemical, Sporidiobolus salmonicolor
Substrate in data set [1]: C[C@@H]1CC(=O)c2ncnc(N3CCN(C(=O)OC(C)(C)C)CC3)c21
Put plainly: Kinetic characterization (app. KM, app. kcat), Table 9c, variant E00144. The conditions noted are these: other: E00144; pH 7.0.

Substrate in data set [2]: C[C@@H]1CC(=O)c2ncnc(N3CCN(C(=O)OC(C)(C)C)CC3)c21
Kind of data set: Kinetic characterization (app. KM, app. kcat), Table 9c, wild type. The following applies: other: WT; pH 7.0.

Substrate in data set [3]: C[C@@H]1CC(=O)c2ncnc(N3CCN(C(=O)OC(C)(C)C)CC3)c21
Kind of data set: Kinetic characterization (app. KM, app. kcat), Table 9c, variant E00184 (first line). The following applies: other: E00184, first line; pH 7.0.

Substrate in data set [4]: C[C@@H]1CC(=O)c2ncnc(N3CCN(C(=O)OC(C)(C)C)CC3)c21
Kind of data set: Kinetic characterization (app. KM, app. kcat), Table 9c, variant E00128. The conditions noted are these: other: E00128; pH 7.0.

Substrate in data set [5]: C[C@@H]1CC(=O)c2ncnc(N3CCN(C(=O)OC(C)(C)C)CC3)c21
Put plainly: Kinetic characterization (app. KM, app. kcat), Table 9c, variant E00158. The conditions noted are these: other: E00158; pH 7.0.

Substrate in data set [6]: C[C@@H]1CC(=O)c2ncnc(N3CCN(C(=O)OC(C)(C)C)CC3)c21
Kind of data set: Kinetic characterization (app. KM, app. kcat), Table 9c, variant E00184 (second line). The conditions noted are these: other: E00184, second line; pH 7.0.

B1: Sporidiobolus salmonicolor ketoreductase variant E00144, Trp97_Met241_Trp242_Ser245_Met316_Met342, SEQ ID NO: 3, His-tag (Sporobolomyces salmonicolor; … (protein)
chain: MAKIDNAVLPEGSLVLVTGANGFVASHVVEQLLEHGYKVRGTARSASKLANLQKRWDAKYPGRFETAVVEDMLKQGAYDEVIKGAAGVAHIASVVSWSNKYDEVVTPAIGGTLNALRAAAATPSVKRFVLTSSTVSALIPKPNVEGIYLDEKSWNLESIDKAKTLPESDPQKSLWVYAASKTEAELAAWKFMDENKPHFTLNAVLPNYTIGTIFDPETQSGSTSGWMMSLFNGEVSPALAMWPPSYYVSAVDIGLLHLGCLVLPQIERRRVYGTAGTFDWNTVLATFRKLYPSKTFPADFPDQGQDLSKFDTAPSMEILKSLGRPGWRSIEESIKDLVGSEMA
B1: in data set [1], the Km turned out to be 175.2 ± 9.9 µM, the kcat amounted to 0.103 ± 0.00333 s⁻¹ and the specificity constant (kcat/Km) came out at 593 M⁻¹ s⁻¹.

B2: Sporidiobolus salmonicolor ketoreductase, wild type (WT), UniProt Q9UUN9, SEQ ID NO: 1 (Sporobolomyces salmonicolor) (protein)
chain: MAKIDNAVLPEGSLVLVTGANGFVASHVVEQLLEHGYKVRGTARSASKLANLQKRWDAKYPGRFETAVVEDMLKQGAYDEVIKGAAGVAHIASVVSFSNKYDEVVTPAIGGTLNALRAAAATPSVKRFVLTSSTVSALIPKPNVEGIYLDEKSWNLESIDKAKTLPESDPQKSLWVYAASKTEAELAAWKFMDENKPHFTLNAVLPNYTIGTIFDPETQSGSTSGWMMSLFNGEVSPALALMPPQYYVSAVDIGLLHLGCLVLPQIERRRVYGTAGTFDWNTVLATFRKLYPSKTFPADFPDQGQDLSKFDTAPSLEILKSLGRPGWRSIEESIKDLVGSETA
With B2, in data set [2], the Km was 11.9 ± 1.1 µM, the catalytic constant (kcat) amounted to 0.00817 ± 0.000333 s⁻¹ and the kcat/Km worked out at 683 M⁻¹ s⁻¹.

B3: Sporidiobolus salmonicolor ketoreductase variant E00184, Trp97_Ala224_Lys238_Met241_Trp242_Ser245_Gly246_Met316_Met342, SEQ ID NO: 8, His-tag (Sporobolomyces … (protein)
chain: MAKIDNAVLPEGSLVLVTGANGFVASHVVEQLLEHGYKVRGTARSASKLANLQKRWDAKYPGRFETAVVEDMLKQGAYDEVIKGAAGVAHIASVVSWSNKYDEVVTPAIGGTLNALRAAAATPSVKRFVLTSSTVSALIPKPNVEGIYLDEKSWNLESIDKAKTLPESDPQKSLWVYAASKTEAELAAWKFMDENKPHFTLNAVLPNYTIGTIFDPETQSGSTAGWMMSLFNGEVSPKLAMWPPSGYVSAVDIGLLHLGCLVLPQIERRRVYGTAGTFDWNTVLATFRKLYPSKTFPADFPDQGQDLSKFDTAPSMEILKSLGRPGWRSIEESIKDLVGSEMA
Regarding B3, in data set [3], the Michaelis-Menten constant (Km) worked out at 471.7 ± 34.6 µM, the kcat came out at 0.355 ± 0.0167 s⁻¹ and the kcat/Km turned out to be 753 M⁻¹ s⁻¹.

B4: Sporidiobolus salmonicolor ketoreductase variant E00128, Trp97_Met241_Trp242_Ser245, SEQ ID NO: 2, His-tag (Sporobolomyces salmonicolor; F97W/L241M/M242W/Q245S) (protein)
chain: MAKIDNAVLPEGSLVLVTGANGFVASHVVEQLLEHGYKVRGTARSASKLANLQKRWDAKYPGRFETAVVEDMLKQGAYDEVIKGAAGVAHIASVVSWSNKYDEVVTPAIGGTLNALRAAAATPSVKRFVLTSSTVSALIPKPNVEGIYLDEKSWNLESIDKAKTLPESDPQKSLWVYAASKTEAELAAWKFMDENKPHFTLNAVLPNYTIGTIFDPETQSGSTSGWMMSLFNGEVSPALAMWPPSYYVSAVDIGLLHLGCLVLPQIERRRVYGTAGTFDWNTVLATFRKLYPSKTFPADFPDQGQDLSKFDTAPSLEILKSLGRPGWRSIEESIKDLVGSETA
Consider B4, for which, in data set [4], the Km was 162.8 ± 7.8 µM, the kcat was 0.0967 ± 0.00167 s⁻¹ and the kcat/Km stood at 592 M⁻¹ s⁻¹.

B5: Sporidiobolus salmonicolor ketoreductase variant E00158, Trp97_Lys238_Met241_Trp242_Ser245_Met316_Met342, SEQ ID NO: 6, His-tag (Sporobolomyces salmonicolor; … (protein)
chain: MAKIDNAVLPEGSLVLVTGANGFVASHVVEQLLEHGYKVRGTARSASKLANLQKRWDAKYPGRFETAVVEDMLKQGAYDEVIKGAAGVAHIASVVSWSNKYDEVVTPAIGGTLNALRAAAATPSVKRFVLTSSTVSALIPKPNVEGIYLDEKSWNLESIDKAKTLPESDPQKSLWVYAASKTEAELAAWKFMDENKPHFTLNAVLPNYTIGTIFDPETQSGSTSGWMMSLFNGEVSPKLAMWPPSYYVSAVDIGLLHLGCLVLPQIERRRVYGTAGTFDWNTVLATFRKLYPSKTFPADFPDQGQDLSKFDTAPSMEILKSLGRPGWRSIEESIKDLVGSEMA
Consider B5, for which, in data set [5], the Michaelis-Menten constant (Km) is 299.7 ± 7.9 µM, the kcat came to 0.255 ± 0.00667 s⁻¹ and the kcat/Km amounted to 853 M⁻¹ s⁻¹.

B6: Sporidiobolus salmonicolor ketoreductase variant E00184 (second line so labelled; in Table 9b W97 V134 A224 K238 M241 W242 S245 G246 M316 M342, the mutations … (protein)
chain: MAKIDNAVLPEGSLVLVTGANGFVASHVVEQLLEHGYKVRGTARSASKLANLQKRWDAKYPGRFETAVVEDMLKQGAYDEVIKGAAGVAHIASVVSWSNKYDEVVTPAIGGTLNALRAAAATPSVKRFVLTSSVVSALIPKPNVEGIYLDEKSWNLESIDKAKTLPESDPQKSLWVYAASKTEAELAAWKFMDENKPHFTLNAVLPNYTIGTIFDPETQSGSTAGWMMSLFNGEVSPKLAMWPPSGYVSAVDIGLLHLGCLVLPQIERRRVYGTAGTFDWNTVLATFRKLYPSKTFPADFPDQGQDLSKFDTAPSMEILKSLGRPGWRSIEESIKDLVGSEMA
notes: second row labelled E00184, evidently E00185
Take B6: in data set [6], the Michaelis constant (Km) was found to be 143.5 ± 5.5 µM, the kcat was determined as 0.525 ± 0.0133 s⁻¹ and the kcat/Km amounted to 3660 M⁻¹ s⁻¹.
